From patent US5643731A, “Use of pairs of leucine zipper peptides in immunoassay methods” (Behringwerke Aktiengesellschaft, priority 1990, dated 1997)

Columns and labels:
[1] = biological target: T1, Jun-anti-AFP antibody binding to the Fos-coated microtiter plate (FBJ murine osteosarcoma virus, UniProt P01102); assay: Inhibition of the Jun-anti-AFP antibody binding to the Fos-coated microtiter plate by addition of free peptide
T1 construct: host or cells: synthetic peptides; conjugate made in house
Procedure: 100 μl portions of a Jun peptide-anti-AFP antibody conjugate (anti-AFP antibodies from sheep) prepared as in Example 2, Step 3 or 3a are pipetted into the wells of microtiter plates which were coated with Fos peptide as in Example 2, Step 1, and incubated at 37° C. for 2h. After the wells had been washed three times with washing buffer (OSEW, Behringwerke), 20 μl portions of standard or sample and 100 μl of a buffer (OSND, Behringwerke) with the addition of peroxidase-conjugated anti-AFP antibodies from sheep were introduced. The two-hour incubation at 37° C. is again stopped with a washing step (see above), and the substrate/chromogen reaction is carried out as in Example 2, Step 4.
The Jun/Fos AFP assay described hereinbefore was preceded by an incubation step with 100 μl in each case of a Jun or Fos peptide-containing buffer solution (buffer=OSND) per well at 37° C. for one hour. After 3 washes, the subsequent assay procedure was as specified above.

[2] = biological target: c-Jun "leucine zipper peptide" (SEQ ID No1) (Homo sapiens, UniProt P05412); settings: cited from earlier work

In the case of “RIARLEEKVKTLKAQNSELASTANMLREQVAQLKQKVMNY [Jun, synthetic peptide comprising amino-acid positions 285 to 324, the so-called leucine zipper of the c-Jun protein]”, the “inhibition of the binding of Jun-anti-AFP antibody to the Fos-coated solid phase” value ([1]; addition of free peptide) is reported as “possible to inhibit the binding”, the “Measured signal (extinction 450 nm) Standard S0 (0 IU AFP/ml)” value (shortened to “Measured signal … (0 IU AFP/ml)”) ([1]; free peptide 5 μg/ml) is reported as 0.015 and the “Measured signal (extinction 450 nm) Standard S5 (300 IU AFP/ml)” value (“Measured signal … (300 IU AFP/ml)” below) ([1]; free peptide 5 μg/ml) is reported as 3.486. The “Measured signal … (0 IU AFP/ml)” value ([1]; free peptide 50 μg/ml) was 0.011, the “Measured signal … (300 IU AFP/ml)” value ([1]; free peptide 50 μg/ml) was 2.857 and the “Measured signal … (0 IU AFP/ml)” value ([1]; free peptide 500 μg/ml) was 0.013. For the same sequence, the “Measured signal … (300 IU AFP/ml)” value ([1]; free peptide 500 μg/ml) was 1.371.
With “LTDTLQAETDQLEDKKSALQTEIANLLKEKEKLEFILAAY [Fos, synthetic peptide comprising positions 162 to 201, the leucine zipper of the v-Fos protein]” the “Measured signal … (0 IU AFP/ml)” value ([1]; free peptide 5 μg/ml) was 0.010, the “Measured signal … (300 IU AFP/ml)” value ([1]; free peptide 5 μg/ml) was 3.416 and the “Measured signal … (0 IU AFP/ml)” value ([1]; free peptide 50 μg/ml) was 0.011. For the same sequence, the “Measured signal … (300 IU AFP/ml)” value ([1]; free peptide 50 μg/ml) was 3.572, the “Measured signal … (0 IU AFP/ml)” value ([1]; free peptide 500 μg/ml) was 0.015 and the “Measured signal … (300 IU AFP/ml)” value ([1]; free peptide 500 μg/ml) was 3.694. For the same sequence, the “heterodimeric complexes with the c-Jun "leucine zipper peptide"” value [2] was “forms very stable heterodimeric complexes”.
